Target: pre-pro-human insulin

Protein | Activity PPI cleavage | Selectivity [%]
trypsin variant SEQ ID NO: 76 (protein) IVGGYTCAANSIPYQVSLNSGSHRCGGSLINSQWVVSAAHCYKSRIQVRLGEHNIDVLEGNEQFINAAKIITHPNFNENTLDNDIMLIKLSSPATLNSRVATVSLPRSCAAAGTECLISGWGNTKSSGSSYPSLLQCLKAPVLSDSSCKSSYPGQITGNMICVGFLEGGKDACQGDSGGPVVCNGQLQGIVSSGYGCAQKNKPGVYTKVCNYVNWIQQTIAAN | yes | >90
trypsin variant SEQ ID NO: 12 (protein) IVGGYTCAANSIPYQVSLNSGSHRCGGSLINSQWVVSAAHCYKSRIQVRLGEHNIDVLEGNEQFINAAKIITHPNFNGNTLDNDIMLIKLSSPATLNSDVATVSLPRSCAAAGTECLISGWGNTKSSGSSYPSLLQCLKAPVLSDSSCKSSYPGQITGNMICVGFLEGGKDACQGDSGGPVVCNGQLQGIVSSGYGCAQKNKPGVYTKVCNYVNWIQQTIAAN | yes | >90
trypsin variant SEQ ID NO: 112 (protein) IVGGYTCAANSIPYQVSLNSGSHRCGGSLINSQWVVSAAHCYKPRIQVRLGEHNIHVLEGNEQFINAAKIITHPNFNPNTLDNDIMLIKLSSPATLNSHVATVSLPTSCAAAGTECLISGWGNTSSSGSSYPSLLQCLKAPVLSDSSCKSSYPGQITGNMICVGFLEGGADSCQGDSGGPVVCNGQLQGIVSSGYGCAQKNKPGVYTKVCNYVNWIQQTIAAN | yes | >90
trypsin variant SEQ ID NO: 13 (protein) IVGGYTCAANSIPYQVSLNSGSHRCGGSLINSQWVVSAAHCYKSRIQVRLGEHNIDVLEGNEQFINAAKIITHPNFNGNTLDNDIMLIKLSSPATLNSEVATVSLPRSCAAAGTECLISGWGNTKSSGSSYPSLLQCLKAPVLSDSSCKSSYPGQITGNMICVGFLEGGKDACQGDSGGPVVCNGQLQGIVSSGYGCAQKNKPGVYTKVCNYVNWIQQTIAAN | yes | >90
trypsin variant SEQ ID NO: 114 (protein) IVGGYTCAANSIPYQVSLNSGSHRCGGSLINSQWVVSAAHCYKPRIQVRLGEHNIHVLEGNEQFINAAKIITHPNFNGNTLDNDIMLIKLSSPATLNSAVATVSLPTSCAAAGTECLISGWGNTASSGSSYPSLLQCLKAPVLSDSSCKSSYPGQITGNMICVGFLEGGADSCQGDSGGPVVCNGQLQGIVSSGYGCAQKNKPGVYTKVCNYVNWIQQTIAAN | yes | >90
trypsin variant SEQ ID NO: 120 (protein) IVGGYTCAANSIPYQVSLNSGSHRCGGSLINSQWVVSAAHCYKSRIQVRLGEHNIDVLEGNEQFINAAKIITHPNFNGNTLDNDIMLIKLSSPATLNSRVATVSLPRSCAAAGTECLISGWGNTPSSGSSYPSLLQCLKAPVLSDSSCKSSYPGQITGNMICVGFLEGGKDACQGDSGGPVVCNGQLQGIVSSGYGCAQKNKPGVYTKVCNYVNWIQQTIAAN | yes | 1.4
trypsin variant SEQ ID NO: 121 (protein) IVGGYTCAANSIPYQVSLNSGSHRCGGSLINSQWVVSAAHCYKSRIQVRLGEHNIDVLEGNEQFINAAKIITHPNFNGNTLDNDIMLIKLSSPATLNSRVATVSLPRSCAAAGTECLISGWGNTKSSGSSYPSLLQCLKAPVLSDSSCKSSYPGQITGNMICVGFLEGGIDACQGDSGGPVVCNGQLQGIVSSGYGCAQKNKPGVYTKVCNYVNWIQQTIAAN | yes | 4.6
trypsin variant SEQ ID NO: 122 (protein) IVGGYTCAANSIPYQVSLNSGSHRCGGSLINSQWVVSAAHCYKSRIQVRLGEHNIDVLEGNEQFINAAKIITHPNFNGNTLDNDIMLIKLSSPATLNSRVATVSLPRSCAAAGTECLISGWGNTKSSGSSYPSLLQCLKAPVLSDSSCKSSYPGQITGNMICVGFLEGGFDACQGDSGGPVVCNGQLQGIVSSGYGCAQKNKPGVYTKVCNYVNWIQQTIAAN | yes | 59.4
trypsin variant SEQ ID NO: 123 (protein) IVGGYTCAANSIPYQVSLNSGSHGCGGSLINSQWVVSAAHCYKSRIQVRLGEHNIDVLEGNEQFINAAKIITHPNFNGNTLDNDIMLIKLSSPATLNSRVATVSLPRSCAAAGTECLISGWGNTKSSGSSYPSLLQCLKAPVLSDSSCKSSYPGQITGNMICVGFLEGGKDACQGDSGGPVVCNGQLQGIVSSGYGCAQKNKPGVYTKVCNYVNWIQQTIAAN | yes | 60.7
trypsin variant SEQ ID NO: 124 (protein) IVGGYTCAANSIPYQVSLNSGSHRCGGSLINSQWVVSAAHCYKSRIQVRLGEHNIDVLEGNEQFINAAKIITHPNFNGNTLDNDIMLIKLSSPATLNSRVATVSLPRSCAAAGTECLISGWGNTKSSGSSKPSLLQCLKAPVLSDSSCKSSYPGQITGNMICVGFLEGGKDACQGDSGGPVVCNGQLQGIVSSGYGCAQKNKPGVYTKVCNYVNWIQQTIAAN | yes | 27.6
trypsin variant SEQ ID NO: 125 (protein) IVGGYTCAANSIPYQVSLNSGSHDCGGSLINSQWVVSAAHCYKSRIQVRLGEHNIDVLEGNEQFINAAKIITHPNFNGNTLDNDIMLIKLSSPATLNSRVATVSLPRSCAAAGTECLISGWGNTKSSGSSYPSLLQCLKAPVLSDSSCKSSYPGQITGNMICVGFLEGGKDACQGDSGGPVVCNGQLQGIVSSGYGCAQKNKPGVYTKVCNYVNWIQQTIAAN | yes | 12.2
trypsin variant SEQ ID NO: 126 (protein) IVGGYTCAANSIPYQVSLNSGSHECGGSLINSQWVVSAAHCYKSRIQVRLGEHNIDVLEGNEQFINAAKIITHPNFNGNTLDNDIMLIKLSSPATLNSRVATVSLPRSCAAAGTECLISGWGNTKSSGSSYPSLLQCLKAPVLSDSSCKSSYPGQITGNMICVGFLEGGKDACQGDSGGPVVCNGQLQGIVSSGYGCAQKNKPGVYTKVCNYVNWIQQTIAAN | yes | 7.2
trypsin variant SEQ ID NO: 127 (protein) IVGGYTCAANSIPYQVSLNSGSHRCGGSLINSQWVVSAAHCYKYRIQVRLGEHNIDVLEGNEQFINAAKIITHPNFNGNTLDNDIMLIKLSSPATLNSRVATVSLPRSCAAAGTECLISGWGNTKSSGSSYPSLLQCLKAPVLSDSSCKSSYPGQITGNMICVGFLEGGKDACQGDSGGPVVCNGQLQGIVSSGYGCAQKNKPGVYTKVCNYVNWIQQTIAAN | yes | 20.5
trypsin variant SEQ ID NO: 128 (protein) IVGGYTCAANSIPYQVSLNSGSHRCGGSLINSQWVVSAAHCYKSRIQVRLGEHNIDVLEGNEQFINAAKIITHPNFNGNTLDNDIMLIKLSSPATLNSRVATVSLPRSCAAAGTECLISGWGNTKSSGSSPPSLLQCLKAPVLSDSSCKSSYPGQITGNMICVGFLEGGKDACQGDSGGPVVCNGQLQGIVSSGYGCAQKNKPGVYTKVCNYVNWIQQTIAAN | yes | 57.1
trypsin variant SEQ ID NO: 129 (protein) IVGGYTCAANSIPYQVSLNSGSHRCGGSLINSQWVVSAAHCYKSRIQVRLGEHNIDVLEGNEQFINAAKIITHPNFNGNTLDNDIMLIKLSSPATLNSRVATVSLPRSCAAAGTECLISGWGNTKSSGSSYPSLLQCLKAPVLSDSSCKSSYPGQITGNMICVGFLEGGKDACQGDSGGPVVCNGQLQGIVSNGYGCAQKNKPGVYTKVCNYVNWIQQTIAAN | yes | 44.8
trypsin variant SEQ ID NO: 130 (protein) IVGGYTCAANSIPYQVSLNSGSHRCGGSLINSQWVVSAAHCYKSRIQVRLGEHNIDVLEGNEQFINAAKIITHPNFNGNTLDNDIMLIKLSSPATLNSRVATVSLPRSCAAAGTECLISGWGNTKSSGSSYPSLLQCLKAPVLSDSSCKSSYPGQITGNMICVGFLEGGKDACQGDSGGPVVCNGQLQGIVSCGYGCAQKNKPGVYTKVCNYVNWIQQTIAAN | yes | 33.8
trypsin variant SEQ ID NO: 15 (protein) IVGGYTCAANSIPYQVSLNSGSHRCGGSLINSQWVVSAAHCYKSRIQVRLGEHNIDVLEGNEQFINAAKIITHPNFNGNTLDNDIMLIKLSSPATLNSRVATVSLPRSCAAAGTECLISGWGNTASSGSSYPSLLQCLKAPVLSDSSCKSSYPGQITGNMICVGFLEGGKDACQGDSGGPVVCNGQLQGIVSSGYGCAQKNKPGVYTKVCNYVNWIQQTIAAN | yes | >90
trypsin variant SEQ ID NO: 16 (protein) IVGGYTCAANSIPYQVSLNSGSHRCGGSLINSQWVVSAAHCYKSRIQVRLGEHNIDVLEGNEQFINAAKIITHPNFNGNTLDNDIMLIKLSSPATLNSRVATVSLPRSCAAAGTECLISGWGNTGSSGSSYPSLLQCLKAPVLSDSSCKSSYPGQITGNMICVGFLEGGKDACQGDSGGPVVCNGQLQGIVSSGYGCAQKNKPGVYTKVCNYVNWIQQTIAAN | yes | >90
trypsin variant SEQ ID NO: 17 (protein) IVGGYTCAANSIPYQVSLNSGSHRCGGSLINSQWVVSAAHCYKSRIQVRLGEHNIDVLEGNEQFINAAKIITHPNFNGNTLDNDIMLIKLSSPATLNSRVATVSLPRSCAAAGTECLISGWGNTYSSGSSYPSLLQCLKAPVLSDSSCKSSYPGQITGNMICVGFLEGGKDACQGDSGGPVVCNGQLQGIVSSGYGCAQKNKPGVYTKVCNYVNWIQQTIAAN | yes | >80
trypsin variant SEQ ID NO: 20 (protein) IVGGYTCAANSIPYQVSLNSGSHRCGGSLINSQWVVSAAHCYKSRIQVRLGEHNIDVLEGNEQFINAAKIITHPNFNGNTLDNDIMLIKLSSPATLNSRVATVSLPRSCAAAGTECLISGWGNTESSGSSYPSLLQCLKAPVLSDSSCKSSYPGQITGNMICVGFLEGGKDACQGDSGGPVVCNGQLQGIVSSGYGCAQKNKPGVYTKVCNYVNWIQQTIAAN | yes | >90
trypsin variant SEQ ID NO: 21 (protein) IVGGYTCAANSIPYQVSLNSGSHRCGGSLINSQWVVSAAHCYKSRIQVRLGEHNIDVLEGNEQFINAAKIITHPNFNGNTLDNDIMLIKLSSPATLNSRVATVSLPRSCAAAGTECLISGWGNTHSSGSSYPSLLQCLKAPVLSDSSCKSSYPGQITGNMICVGFLEGGKDACQGDSGGPVVCNGQLQGIVSSGYGCAQKNKPGVYTKVCNYVNWIQQTIAAN | yes | >90

From patent US20230303994
